Data reported in patent US10273291.

Molecular target: ΔRSC3
Experiment: ELISA, antigen coated, IgG1

Row | Substance | fold less binding than to RSC3 [fold]
1 | VRC-PG04b (antibody) | 100
2 | VRC-PG04 (antibody) | 100
